Where “and” joins values, the source holds several entries; their conditions need not be identical. Equal values may be shown once.

Assay [1] deals with PHB domain of B. subtilis YuaG (FloT) (Bacillus subtilis). The assay is described as follows: native gel or EMSA; blue native PAGE of the isolated PHB domain, according to Wittig et al. (In general: In EMSA bound probe runs differently from free probe, usually more slowly.)
Assay [2] has the same target. Description: SDS-PAGE (SDS-resistant oligomers); purified PHB domain without cross-linking on denaturing SDS-PAGE; colloidal Coomassie blue staining or anti-His immunoblot.
The target is the same in assay [3]. Description: SEC; Superose 6 10/300 GL, buffer A (50 mM TrisHCl pH 7.5, 150 mM NaCl, 5 mM MgCl2), RT; column calibrated with the BIO-RAD Gel Filtration Standard; fractions checked by SDS-PAGE and anti-His immunoblot. For orientation: In gel filtration, larger molecules generally elute earlier.

Regarding “PHB domain of B. subtilis YuaG (FloT) (domain or fragment)”, the stoichiometry N in assay [1] was 14; in assay [2] it was 4 and 8; in assay [3] it was 14.8.

In general, stoichiometry N refers to the number of molecules, sites or subunits per partner or assembly.

Values taken from PMC4312047.
